The subject of one data set is FIS (Escherichia coli). In words: EMSA. As to conditions: EMSA: 10 mM Tris-HCl pH 8, 10 mM MgCl2, 100 mM NaCl, 10 mM KCl, 1 mM spermidine, 0.5 mM DTT, 5% glycerol, 0.08 mg/ml BSA, 50 ng poly dI-dC, 25 C, 15 min ….
The next data set relates to H-NS (Escherichia coli). In words: EMSA. Particulars: EMSA: 10 mM Tris-HCl pH 8, 10 mM MgCl2, 100 mM NaCl, 10 mM KCl, 1 mM spermidine, 0.5 mM DTT, 5% glycerol, 0.08 mg/ml BSA, 50 ng poly dI-dC, 25 C, 15 min …. On the technique in general: A gel shift assay detects complexes by their altered migration in electrophoresis.

On to cspA promoter 310 bp fragment, for which the binding signal is 7 nM with FIS (Escherichia coli) and 520 nM with H-NS (Escherichia coli).
